The values that follow come from paper PMC4259810.

The target of experiment [1] is DLC1 500-1,091 (UniProt Q96QB1). Briefly: GST pull-down from cotransfected cells, GFP blot. As to conditions: reference: GST-(1–550)-WT; sites S120,S205,S422,S509.
In experiment [2] the target is DLC1 Rho-GAP domain, 609-878 (UniProt Q96QB1). Briefly: GST pull-down from cotransfected cells, GFP blot. The settings on record: sites S120,S205,S422,S509.

As to “DLC1 1-550 (from UniProt Q96QB1-1) GST-(1–550)-4A”, the “binding against the reference” value in experiment [1] and in experiment [2] (reference: GST-(1–550)-WT) was “stronger” in each case.

“DLC1 80-550 (from UniProt Q96QB1-1) GST-DLC1(80–550)-4A”: the “binding against the reference” value in experiment [2] (reference: GST-DLC1(80–550)-WT) is “stronger”.
